B1: zebrafish Jamb ectodomain (extracellular IgSF domains) fused to rat Cd4 domains 3 and 4 (domain or fragment, UniProt A0A0R4IGV4 19-226, looked up)
chain: VTVSSRNPKVEVHEFSDAELSCEFKTEKDTNPRIEWKRKDKEKDVSFVYYGERFVGPFQDRADIEGATVRLRRVTQADAGEYRCEVSAPSDSISLGETNVTLRVLVPPQTPSCDVPSSALTGSQVELRCRDRHSIPPAVYTWYKDNRALPIRHPNATYTVNEFTGVLIPQSHYNPGTVCQHCMYHPNYHIPNTQLTTTFQTHDLNVAA
notes: Jamb (official symbol jam2a), zebrafish orthologue of JAM-B; extracellular IgSF domains; Stood both as analyte and as ligand (6H and bio forms); also called Jam2a; JAM-B orthologue; source: mammalian expression system, purified; analyte resolved by gel filtration immediately before use; not shown: rat Cd4 domains 3 and 4, C-terminal, kept
B2: zebrafish Jamc ectodomain (extracellular IgSF domains) fused to rat Cd4 domains 3 and 4 (domain or fragment, UniProt A3KPA0 24-235, looked up)
chain: VLLKSTNSKPWVNEFESIELSCMIESITTTKPRIEWKKIKNGDPSYVYFDNQISGDLERRAKIREPATLVILNATRSDSADYRCEVTAPNDQKSFDEILISLTVRVKPVVPRCSVPKSIPVGKPAELHCLEDEGYPKSQYQWFRNKEEIPLDPKSSPKFFNSTYTLDGEMGTLKFSAVRKEDAGEYYCRAKNEAGISECGPQMMEVYDINIA
notes: Jamc (official symbol jam3b), zebrafish orthologue of JAM-C; extracellular IgSF domains; Stood both as analyte and as ligand (6H and bio forms); also called Jam3b; JAM-C orthologue; source: mammalian expression system, purified; analyte resolved by gel filtration immediately before use; not shown: rat Cd4 domains 3 and 4, C-terminal, kept

How the values were obtained:
Experiment in all cases: SPR; systematic all-against-all screen of the six ectodomains, each as analyte and as ligand; dissociation phase of three concentrations of purified analyte averaged and fitted to a first-order decay curve; t1/2 = ln 2/kd; 28°C; half-lives in the text are the average of both orientations; t1/2 <=0.1 s not quantifiable (10 Hz instrument)
[1] = target: zebrafish Jamc ectodomain (extracellular IgSF domains) fused to rat Cd4 domains 3 and 4 (zebrafish) (UniProt A3KPA0)
[2] = target: zebrafish Jamc2 ectodomain (extracellular IgSF domains) fused to rat Cd4 domains 3 and 4 (zebrafish)
[3] = target: B2; settings: both partners purified
[4] = target: the molecule itself

## zebrafish Jamb2 ectodomain (extracellular IgSF domains) fused to rat Cd4 domains 3 and 4 (from UniProt B0V233 1-306) (domain or fragment)
[1]
  t1/2 (half-life of the complex): 0.26 s

## zebrafish Jamb ectodomain (extracellular IgSF domains) fused to rat Cd4 domains 3 and 4 (from UniProt A0A0R4IGV4 19-226) (domain or fragment)
[2]
  t1/2 (half-life of the complex): 7 s

## zebrafish Jamc2 ectodomain (extracellular IgSF domains) fused to rat Cd4 domains 3 and 4 (from UniProt A0ACD6B6E9 1-301) (domain or fragment)
[2]
  t1/2 (half-life of the complex): 0.11 s

## B1
[3]
  t1/2 (half-life of the complex): ~1.63 s

## B2
[4]
  t1/2 (half-life of the complex): 0.67 s

Reference: article PMC3399880, “Genomic Organisation, Embryonic Expression and Biochemical Interactions of the Zebrafish Junctional Adhesion Molecule Family of Receptors” (PLoS ONE, 2012)
